Source: patent US20230272088A1 (SYNTHEKINE, published 2023)

Key:
[1] = molecular target: T1, extracellular domain of hIFNGR1 (human, UniProt P15260 18-245, conjugated to Alexa647 (site not stated)); assay: flow cytometry
T1 construct: UniProt P15260 residues 18-245; also called hIFNGR1-ECD; human IFNGR1 ECD
T1 sequence: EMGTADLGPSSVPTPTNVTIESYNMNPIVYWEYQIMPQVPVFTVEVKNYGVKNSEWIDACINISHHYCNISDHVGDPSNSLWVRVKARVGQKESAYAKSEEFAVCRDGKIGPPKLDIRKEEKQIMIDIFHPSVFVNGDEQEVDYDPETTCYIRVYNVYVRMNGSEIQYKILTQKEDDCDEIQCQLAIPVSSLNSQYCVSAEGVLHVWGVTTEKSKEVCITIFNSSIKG

[2] = molecular target: T2, extracellular domain of mIFNGR1 (mouse, UniProt P15261 26-254, conjugated to Alexa647 (site not stated)); assay: flow cytometry, yeast-displayed VHH, 100 nM Alexa647-conjugated antigen
T2 construct: Origin and tags of the murine antigen are not described; UniProt P15261 residues 26-254; also called mIFNGR1-ECD; murine IFNGR1 ECD
T2 sequence: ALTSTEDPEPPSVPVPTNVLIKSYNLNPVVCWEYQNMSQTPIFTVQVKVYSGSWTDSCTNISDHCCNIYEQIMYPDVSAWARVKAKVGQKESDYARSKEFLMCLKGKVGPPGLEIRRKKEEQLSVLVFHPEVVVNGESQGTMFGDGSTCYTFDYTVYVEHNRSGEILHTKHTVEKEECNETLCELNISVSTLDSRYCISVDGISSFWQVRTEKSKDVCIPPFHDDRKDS
Method: (§1) Binding of individual VHH to human and murine antigen was tested by flow cytometry. Briefly, 2E5 yeast cells expressing a single sdAb clone were added to each well of a 96 well plate. The first plate was incubated with 100 nM of human antigen conjugated to Alexa647 whereas the second plate was incubated with 100 nM of murine antigen conjugated to Alexa647. Yeast cells were washed 3 times with PBS containing 1% bovine serum albumin. Yeast cells were analyzed using flow cytometry and clones showing a mean fluorescence intensity of greater than 1000 were considered as binding molecules. Specificity of sdAbs was confirmed by incubating yeast cells with a irrelevant protein conjugated to Alexa647. Positive clones were sequenced, and sequences analyzed to identify unique clonotypes.

[3] = molecular target: T2, extracellular domain of mIFNGR1; assay: flow cytometry
[4] = molecular target: T1, extracellular domain of hIFNGR1; assay: flow cytometry, yeast-displayed VHH, 100 nM Alexa647-conjugated antigen
Method: as §1

B1: DR903 (VHH)
VHH: EVQLVESGGGLVQAGGSLRLSCAASGRIASDYTRGWFRQAPGKEREFVAAIIRSVGDSYYADSVKGRFTISIDNAENTVYLQMNSLKPEDTAVYYCAVGGHLYYGSRWRYPASYDYWGQGTQVTVSS
notes: also called anti-IFNGR1 sdAb VHH DR903
binding result [1]: binds | binding result [2]: binds

B2: DR907 (VHH)
VHH: EVQLVESGGGLVQAGGSLRLSCAASGRTFSNYAMGWFRQAPGNEREFVAAINWNIGSTYYADSVKGRFTISRDNAKNTVYLQMNSLKPEDTAVYYCGAVWPTGRLRVDSEYDYWGQGTQVTVSS
notes: also called anti-IFNGR1 sdAb VHH DR907
binding result [3]: binds | binding result [4]: binds

B3: DR908 (VHH)
VHH: EVQLVESGGGLVQAGGSLRVTCAASGRTFTSLAMGWFRQAPGKEREFVAAISRSGGSTDYADSVKGRFFISRDNAKSTLYLQMSSLKPEDTAVYYCAARDYSTLQYYNEYEYSDWGQGTQVTVSS
notes: also called anti-IFNGR1 sdAb VHH DR908
binding result [3]: binds | binding result [1]: binds
